Results as given in patent US20100227805A1 (RAPPAPORT FAMILY INSTITUTE FOR RESEARCH IN THE MEDICAL …, published 2010).

Key:
[1] = biological target: T1, human MIP-1β (CCL4) (human, UniProt P13236 24-92); assay: direct ELISA, chemokine coated at 10 ng/well, fusion at 1 µg/well
T1 construct: Bought recombinant chemokine; also called human CCL4
T1 sequence (looked up): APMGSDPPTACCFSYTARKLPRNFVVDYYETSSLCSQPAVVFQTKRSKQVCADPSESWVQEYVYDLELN
Method: (§1) The binding specificity of the murine CCR5-IgG soluble receptor to various commercially available human recombinant chemokines (R&D Systems, Minneapolis, N. Mex.) MIP-1α (CCL3), MIP-1β (CCL4) and RANTES as well as the murine recombinant chemokines (R&D Systems, Minneapolis, N. Mex.) MIP-1α (CCL3) and ITAC was determined by direct ELISA as follows: 96-well ELISA plates (Nunc, Roskilde, Denmark) were coated with 10 ng/well of human CCL3, CCL4, CCL5, as well as murine CCL3 or ITAC, and blocked with 1% BSA in PBS. Wells were washed and incubated with 1 μg/well CCR5(EC2)-IgG overnight. Wells were washed and the presence of CCR5(EC2)-IgG was detected with goat anti mouse IgG-HRP antibody (Jackson ImmunoResearch lot no. 58734). Results are shown as O.D. reading at 450 nm.

[2] = biological target: T2, human RANTES (CCL5) (human, UniProt P13501 24-91); assay: as above
T2 construct: Bought recombinant chemokine; also called human CCL5
T2 sequence (looked up): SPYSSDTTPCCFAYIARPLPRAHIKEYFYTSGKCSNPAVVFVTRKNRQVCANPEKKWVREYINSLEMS
Method: as §1

[3] = biological target: T3, murine RANTES (CCL5) (murine, UniProt P30882 24-91); assay: direct ELISA, chemokine coated at 10 ng/well, fusion at 10-1000 ng/ml
T3 construct: Bought recombinant chemokine; also called mCCL5; murine CCL5
Method: (§2) The binding specificity of the different extracellular domains (EC1, EC2, EC3 and N) of the murine CCR5-IgG fusion proteins to various commercially available murine recombinant […] chemokines (R&D Systems, Minneapolis, N. Mex. including MIP-1α (CCL3), (CCL4) and RANTES (CCL5) was determined by direct ELISA as follows: 96-well ELISA plates (Nunc, Roskilde, Denmark) were coated with 10 ng/well of murine CCL3, CCL4 or […] and blocked with 1% BSA in PBS. Wells were washed and incubated with 10 ng/ml, 100 ng/ml or 1000 ng/ml CCR5-IgG (EC1, EC2, EC3, N) at a concentration overnight. Wells were washed and the presence of CCR5-IgG was detected with goat anti mouse IgG-HRP (Jackson ImmunoResearch lot no. 58734). Results are shown as O.D. reading at 450 nm.

[4] = biological target: T4, murine MIP-1α (CCL3) (murine, UniProt P10855 24-92); assay: as above
T4 construct: Bought recombinant chemokine; also called mCCL3; murine CCL3
T4 sequence (looked up): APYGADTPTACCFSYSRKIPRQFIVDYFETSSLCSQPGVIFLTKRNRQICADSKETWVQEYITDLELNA
Method: as §2

[5] = biological target: T5, murine MIP-1β (CCL4) (murine, UniProt P14097 24-92); assay: as above
T5 construct: Bought recombinant chemokine; also called mCCL4; murine CCL4
T5 sequence (looked up): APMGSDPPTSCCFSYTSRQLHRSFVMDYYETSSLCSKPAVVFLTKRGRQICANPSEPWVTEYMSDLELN
Method: as §2

T3 sequence (P30882 24-91 limits assumed): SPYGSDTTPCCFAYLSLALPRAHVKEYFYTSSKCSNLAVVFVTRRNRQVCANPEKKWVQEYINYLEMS

binding result [1]: binds
binding result [2]: binds
binding result [3]: binds
binding result [4]: binds
binding result [5]: binds
B1: mCCR5(EC2)-IgG (Fc fusion)
chain: DAAQPARRARRTKLRSQKEGFHYTCSPHFPHTQYHFWKSFQTLKLEVPRDCGCKPCICTVPEVSSVFIFPPKPKDVLTITLTPKVTCVVVDISKDDPEVQFSWFVDDVEVHTAQTQPREEQFNSTFRSVSELPIMHQDCLNGKEFKCRVNSAAFPAPIEKTISKTKGRPKAPQVYTIPPPKEQMAKDKVSLTCMITDFFPEDITVEWQWNGQPAENYKNTQPIMDTDGSYFVYSKLNVQKSNWEAGNTFTCSVLHEGLHNHHTEKSLSHSPGKGPEQKLISEEDLNSAVDHHHHHH
notes: It may include the vector's Ig-kappa leader and tags; also called murine CCR5(EC2)-IgG; CCR5-Ig(E2)
